Test results reported in patent US20260347476 (published 2026).

T1: IL-15Rbetagamma heterodimer (human, UniProt P14784)
T1 chain 1: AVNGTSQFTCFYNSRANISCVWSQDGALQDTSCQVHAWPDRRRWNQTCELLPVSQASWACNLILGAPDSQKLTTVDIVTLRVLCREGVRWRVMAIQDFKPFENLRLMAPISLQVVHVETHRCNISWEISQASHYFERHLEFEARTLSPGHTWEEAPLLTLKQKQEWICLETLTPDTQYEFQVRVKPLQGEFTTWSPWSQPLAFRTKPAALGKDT
T1 chain 2: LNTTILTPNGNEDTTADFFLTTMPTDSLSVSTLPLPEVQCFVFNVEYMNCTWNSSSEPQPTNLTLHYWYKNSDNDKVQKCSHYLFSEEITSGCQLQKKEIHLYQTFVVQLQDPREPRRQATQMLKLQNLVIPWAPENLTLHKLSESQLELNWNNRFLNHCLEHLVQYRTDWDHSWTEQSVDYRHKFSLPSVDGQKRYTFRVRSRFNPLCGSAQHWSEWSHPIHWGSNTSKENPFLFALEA


How the values were obtained:
[1] = biological target: T1, IL-15Rbetagamma heterodimer; test: SPR, PD1 capture
[2] = biological target: T1, IL-15Rbetagamma heterodimer; test: SPR, anti-human Fc capture
[3] = biological target: T2, IL-15 (human, UniProt P40933); test: SPR, anti-human Fc capture
[4] = biological target: T2, IL-15; test: SPR, PD1 capture

T2 sequence (P40933 49-162): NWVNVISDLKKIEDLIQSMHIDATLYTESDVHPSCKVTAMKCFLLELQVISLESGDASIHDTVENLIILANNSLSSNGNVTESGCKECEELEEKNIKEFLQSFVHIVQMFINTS

Binder | Kd [1] [nM] | Kd [2] [nM] | Kd [3] [nM] | Kd [4] [nM]
RV36:IL-15 complex (antibody) chain 1: QVQLVQSGAEVKKPGASVKVSCKASGYSFSSFGISWVRQAPGQGLEWLGWISAFNGYTKYAQKFQDRVTMTTDTSTSTAYMELRSLRSDDTAVYYCARDPAAWPLQQSLAWFDPWGQGTMVTVSS chain 2: QSVLTQPPSASGTPGQRVTISCSGSTSNLKRNYVYWYQQLPGTAPKLLIYRDRRRPSGVPDRFSGSKSGTSASLAISGLRSEDEADYYCAWYDRELSEWVFGGGTKLTVL chain 3: not shown | 1.07 | 0.771 | – | –
RV18:IL-15 complex (antibody) chain 1: QVQLVQSGAEVKKPGASVKVSCKASGYSFSSFGISWVRQAPGQGLEWLGWISAFNGYTKYAQKFQDRVTMTTDTSTSTAYMELRSLRSDDTAVYYCARDPAAWPLQQSLAWFDPWGQGTMVTVSS chain 2: QSVLTQPPSASGTPGQRVTISCSGSTSNLKRNYVYWYQQLPGTAPKLLIYRDRRRPSGVPDRFSGSKSGTSASLAISGLRSEDEADYYCAWYDRELSEWVFGGGTKLTVL chain 3: not shown | 0.239 | 1.02 | – | –
RV29:IL-15 complex (antibody) chain 1: QVQLVQSGAEVKKPGASVKVSCKASGYSFSSFGISWVRQAPGQGLEWLGWISAFNGYTKYAQKFQDRVTMTTDTSTSTAYMELRSLRSDDTAVYYCARDPAAWPLQQSLAWFDPWGQGTMVTVSS chain 2: QSVLTQPPSASGTPGQRVTISCSGSTSNLKRNYVYWYQQLPGTAPKLLIYRDRRRPSGVPDRFSGSKSGTSASLAISGLRSEDEADYYCAWYDRELSEWVFGGGTKLTVL chain 3: not shown | 0.72 | 0.732 | – | –
RV15 IL-15 arm (antibody, V domains shown) VH: QVQLVQSGAEVKKPGASVKVSCKASGYSFSSFGISWVRQAPGQGLEWLGWISAFNGYTKYAQKFQDRVTMTTDTSTSTAYMELRSLRSDDTAVYYCARDPAAWPLQQSLAWFDPWGQGTMVTVSS VL: QSVLTQPPSASGTPGQRVTISCSGSTSNLKRNYVYWYQQLPGTAPKLLIYRDRRRPSGVPDRFSGSKSGTSASLAISGLRSEDEADYYCAWYDRELSEWVFGGGTKLTVL | – | – | 0.108 | –
RV31:IL-15 complex (antibody) chain 1: QVQLVQSGAEVKKPGASVKVSCKASGYSFSSFGISWVRQAPGQGLEWLGWISAFNGYTKYAQKFQDRVTMTTDTSTSTAYMELRSLRSDDTAVYYCARDPAAWPLQQSLAWFDPWGQGTMVTVSS chain 2: QSVLTQPPSASGTPGQRVTISCSGSTSNLKRNYVYWYQQLPGTAPKLLIYRDRRRPSGVPDRFSGSKSGTSASLAISGLRSEDEADYYCAWYDRELSEWVFGGGTKLTVL chain 3: not shown | 0.981 | 0.979 | – | –
RV1:IL-15 complex (antibody) chain 1: QVQLVQSGAEVKKPGASVKVSCKASGYSFSSFGISWVRQAPGQGLEWLGWISAFNGYTKYAQKFQDRVTMTTDTSTSTAYMELRSLRSDDTAVYYCARDPAAWPLQQSLAWFDPWGQGTMVTVSS chain 2: QSVLTQPPSASGTPGQRVTISCSGSTSNLKRNYVYWYQQLPGTAPKLLIYRDRRRPSGVPDRFSGSKSGTSASLAISGLRSEDEADYYCAWYDRELSEWVFGGGTKLTVL chain 3: not shown | – | 0.705 | – | –
RV32 IL-15 arm (antibody, V domains shown) VH: QVQLVQSGAEVKKPGASVKVSCKASGYSFSSFGISWVRQAPGQGLEWLGWISAFNGYTKYAQKFQDRVTMTTDTSTSTAYMELRSLRSDDTAVYYCARDPAAWPLQQSLAWFDPWGQGTMVTVSS VL: QSVLTQPPSASGTPGQRVTISCSGSTSNLKRNYVYWYQQLPGTAPKLLIYRDRRRPSGVPDRFSGSKSGTSASLAISGLRSEDEADYYCAWYDRELSEWVFGGGTKLTVL | – | – | 0.108 | 0.352
RV26 IL-15 arm (antibody, V domains shown) VH: QVQLVQSGAEVKKPGASVKVSCKASGYSFSSFGISWVRQAPGQGLEWLGWISAFNGYTKYAQKFQDRVTMTTDTSTSTAYMELRSLRSDDTAVYYCARDPAAWPLQQSLAWFDPWGQGTMVTVSS VL: QSVLTQPPSASGTPGQRVTISCSGSTSNLKRNYVYWYQQLPGTAPKLLIYRDRRRPSGVPDRFSGSKSGTSASLAISGLRSEDEADYYCAWYDRELSEWVFGGGTKLTVL | – | – | 0.396 | –
RV18 IL-15 arm (antibody, V domains shown) VH: QVQLVQSGAEVKKPGASVKVSCKASGYSFSSFGISWVRQAPGQGLEWLGWISAFNGYTKYAQKFQDRVTMTTDTSTSTAYMELRSLRSDDTAVYYCARDPAAWPLQQSLAWFDPWGQGTMVTVSS VL: QSVLTQPPSASGTPGQRVTISCSGSTSNLKRNYVYWYQQLPGTAPKLLIYRDRRRPSGVPDRFSGSKSGTSASLAISGLRSEDEADYYCAWYDRELSEWVFGGGTKLTVL | – | – | 0.0769 | –

Now from value to binder:

Kd [1] [nM] | Kd [2] [nM] | Kd [3] [nM] | Kd [4] [nM] | Binder
0.722 | 0.804 | – | – | RV15:IL-15 complex (antibody) chain 1: QVQLVQSGAEVKKPGASVKVSCKASGYSFSSFGISWVRQAPGQGLEWLGWISAFNGYTKYAQKFQDRVTMTTDTSTSTAYMELRSLRSDDTAVYYCARDPAAWPLQQSLAWFDPWGQGTMVTVSS chain 2: QSVLTQPPSASGTPGQRVTISCSGSTSNLKRNYVYWYQQLPGTAPKLLIYRDRRRPSGVPDRFSGSKSGTSASLAISGLRSEDEADYYCAWYDRELSEWVFGGGTKLTVL chain 3: not shown
– | – | 0.0847 | – | RV19 IL-15 arm (antibody, V domains shown) VH: QVQLVQSGAEVKKPGASVKVSCKASGYSFSSFGISWVRQAPGQGLEWLGWISAFNGYTKYAQKFQDRVTMTTDTSTSTAYMELRSLRSDDTAVYYCARDPAAWPLQQSLAWFDPWGQGTMVTVSS VL: QSVLTQPPSASGTPGQRVTISCSGSTSNLKRNYVYWYQQLPGTAPKLLIYRDRRRPSGVPDRFSGSKSGTSASLAISGLRSEDEADYYCAWYDRELSEWVFGGGTKLTVL
– | – | 0.114 | 0.339 | RV29 IL-15 arm (antibody, V domains shown) VH: QVQLVQSGAEVKKPGASVKVSCKASGYSFSSFGISWVRQAPGQGLEWLGWISAFNGYTKYAQKFQDRVTMTTDTSTSTAYMELRSLRSDDTAVYYCARDPAAWPLQQSLAWFDPWGQGTMVTVSS VL: QSVLTQPPSASGTPGQRVTISCSGSTSNLKRNYVYWYQQLPGTAPKLLIYRDRRRPSGVPDRFSGSKSGTSASLAISGLRSEDEADYYCAWYDRELSEWVFGGGTKLTVL
1.45 | 0.742 | – | – | RV32:IL-15 complex (antibody) chain 1: QVQLVQSGAEVKKPGASVKVSCKASGYSFSSFGISWVRQAPGQGLEWLGWISAFNGYTKYAQKFQDRVTMTTDTSTSTAYMELRSLRSDDTAVYYCARDPAAWPLQQSLAWFDPWGQGTMVTVSS chain 2: QSVLTQPPSASGTPGQRVTISCSGSTSNLKRNYVYWYQQLPGTAPKLLIYRDRRRPSGVPDRFSGSKSGTSASLAISGLRSEDEADYYCAWYDRELSEWVFGGGTKLTVL chain 3: not shown
– | 1.17 | – | – | RV19:IL-15 complex (antibody) chain 1: QVQLVQSGAEVKKPGASVKVSCKASGYSFSSFGISWVRQAPGQGLEWLGWISAFNGYTKYAQKFQDRVTMTTDTSTSTAYMELRSLRSDDTAVYYCARDPAAWPLQQSLAWFDPWGQGTMVTVSS chain 2: QSVLTQPPSASGTPGQRVTISCSGSTSNLKRNYVYWYQQLPGTAPKLLIYRDRRRPSGVPDRFSGSKSGTSASLAISGLRSEDEADYYCAWYDRELSEWVFGGGTKLTVL chain 3: not shown
– | – | 0.106 | – | RV17 IL-15 arm (antibody, V domains shown) VH: QVQLVQSGAEVKKPGASVKVSCKASGYSFSSFGISWVRQAPGQGLEWLGWISAFNGYTKYAQKFQDRVTMTTDTSTSTAYMELRSLRSDDTAVYYCARDPAAWPLQQSLAWFDPWGQGTMVTVSS VL: QSVLTQPPSASGTPGQRVTISCSGSTSNLKRNYVYWYQQLPGTAPKLLIYRDRRRPSGVPDRFSGSKSGTSASLAISGLRSEDEADYYCAWYDRELSEWVFGGGTKLTVL
– | – | 0.0664 | 0.227 | RV37 IL-15 arm (antibody, V domains shown) VH: QVQLVQSGAEVKKPGASVKVSCKASGYSFSSFGISWVRQAPGQGLEWLGWISAFNGYTKYAQKFQDRVTMTTDTSTSTAYMELRSLRSDDTAVYYCARDPAAWPLQQSLAWFDPWGQGTMVTVSS VL: QSVLTQPPSASGTPGQRVTISCSGSTSNLKRNYVYWYQQLPGTAPKLLIYRDRRRPSGVPDRFSGSKSGTSASLAISGLRSEDEADYYCAWYDRELSEWVFGGGTKLTVL
– | – | 0.349 | – | RV1 (anti-IL-15 mAb DISC0280) (antibody, V domains shown) VH: QVQLVQSGAEVKKPGASVKVSCKASGYSFSSFGISWVRQAPGQGLEWLGWISAFNGYTKYAQKFQDRVTMTTDTSTSTAYMELRSLRSDDTAVYYCARDPAAWPLQQSLAWFDPWGQGTMVTVSS VL: QSVLTQPPSASGTPGQRVTISCSGSTSNLKRNYVYWYQQLPGTAPKLLIYRDRRRPSGVPDRFSGSKSGTSASLAISGLRSEDEADYYCAWYDRELSEWVFGGGTKLTVL
– | 0.99 | – | – | RV17:IL-15 complex (antibody) chain 1: QVQLVQSGAEVKKPGASVKVSCKASGYSFSSFGISWVRQAPGQGLEWLGWISAFNGYTKYAQKFQDRVTMTTDTSTSTAYMELRSLRSDDTAVYYCARDPAAWPLQQSLAWFDPWGQGTMVTVSS chain 2: QSVLTQPPSASGTPGQRVTISCSGSTSNLKRNYVYWYQQLPGTAPKLLIYRDRRRPSGVPDRFSGSKSGTSASLAISGLRSEDEADYYCAWYDRELSEWVFGGGTKLTVL chain 3: not shown
1.53 | 1.36 | – | – | RV26:IL-15 complex (antibody) chain 1: QVQLVQSGAEVKKPGASVKVSCKASGYSFSSFGISWVRQAPGQGLEWLGWISAFNGYTKYAQKFQDRVTMTTDTSTSTAYMELRSLRSDDTAVYYCARDPAAWPLQQSLAWFDPWGQGTMVTVSS chain 2: QSVLTQPPSASGTPGQRVTISCSGSTSNLKRNYVYWYQQLPGTAPKLLIYRDRRRPSGVPDRFSGSKSGTSASLAISGLRSEDEADYYCAWYDRELSEWVFGGGTKLTVL chain 3: not shown
